Assay results: paper PMC9427776, “TTYH family members form tetrameric complexes at the cell membrane” (Communications Biology, 2022)

B1: mTTYH3-EGFP (HEK 293, pEGFP-N1) [mouse] / itself (parent)
chain: MAGVSYAAPWWVSLLHRLPHFDLRWEATSSQFRPEDADYQQALLLLGATALACLALDLLFLLFYSFWLCCRRRKTDEHLDADCCCTAWCVIITTLVCSAGIAVGFYGNGETSDGIHRATYSLRHANRTVAGVQDRVWDTAAALNRTAEPNLQSLERQLAGRQEPLRAVQRLQTLLGTLLGYTAAIPFWRNPGVSLEVLAEQVDLYDWYRWLGYLGLLLLDVIICLLVLVGLIRSSKGILVGVCLLGVLALVISWGALGLELAVSVGSSDFCVDPDTFVTKMVEEHSVLSGDILQYYLACSPRATNPFQQKLSGSHKALVEMQDVVAELLRNVPREHPATKDPLLRVQEVLNGTEVNLQHLTALVDCRSLHLDYVQALTGFCYDGVEGLIYLALFSFVTALMFSSIVCSIPHTWQQKRGPDDDGEEETAPGPRQAHDSLYRVHMPSLYSCGSSYGSEASIPAAAHTVSNAPVTEYMSQNANFQNPRCENTPLIGRESPPPSYTSSMRAKYLATSQPRPDSSGSGH

Variants of: B1
Test: FSEC
Settings: with itself; DDM solubilized HEK 293 cells; n = 3; parent: 0.98; read off a plot

Variant | screen value
MAGVSYAAPWWVSLLHRLPHFDLRWEATSSQFRPEDADYQQALLLLGATALACLALDLLFLLFYSFWLCCRRRKTDEHLDADCCCTAWCVIITTLVCSAGIAVGFYGNGETSDGIHRATYSLRHANRTVAGVQDRVWDTAAALNRTAEPNLQSLERQLAGRQEPLRAVQRLQTLLGTLLGYTAAIPFWRNPGVSLEVLAEQVDLYDWYRWLGYLGLLLLDVIICLLVLVGLIRSSKGILVGVCLLGVLALVISWGALGLELAVSVGSSDFCVDPDTFVTKMVEEHSVLSGDILQYYLAASPRATNPFQQKLSGSHKALVEMQDVVAELLRNVPREHPATKDPLLRVQEVLNGTEVNLQHLTALVDCRSLHLDYVQALTGFCYDGVEGLIYLALFSFVTALMFSSIVCSIPHTWQQKRGPDDDGEEETAPGPRQAHDSLYRVHMPSLYSCGSSYGSEASIPAAAHTVSNAPVTEYMSQNANFQNPRCENTPLIGRESPPPSYTSSMRAKYLATSQPRPDSSGSGH [chain 1 C299A] | 0.27
MAGVSYAAPWWVSLLHRLPHFDLRWEATSSQFRPEDADYQQALLLLGATALACLALDLLFLLFYSFWLCCRRRKTDEHLDADCCCTAWCVIITTLVCSAGIAVGFYGNGETSDGIHRATYSLRHANRTVAGVQDRVWDTAAALNRTAEPNLQSLERQLAGRQEPLRAVQRLQTLLGTLLGYTAAIPFWRNPGVSLEVLAEQVDLYDWYRWLGYLGLLLLDVIICLLVLVGLIRSSKGILVGVCLLGVLALVISWGALGLELAVSVGSSDFCVDPDTFVTKMVEEHSVLSGDILQYYLACSPRATNPFQQKLSGSHKALVEMQDVVAELLRNVPREHPATKDPLLRVQEVLNGTEVNLQHLTALVDARSLHLDYVQALTGFCYDGVEGLIYLALFSFVTALMFSSIVCSIPHTWQQKRGPDDDGEEETAPGPRQAHDSLYRVHMPSLYSCGSSYGSEASIPAAAHTVSNAPVTEYMSQNANFQNPRCENTPLIGRESPPPSYTSSMRAKYLATSQPRPDSSGSGH [chain 1 C366A] | 0.25
